Experimental data: PMC4975523

Molecular target: CBLB (UniProt Q3TTA7)
Assay: anti-CBLB IP, dectin-1 blot
Settings: reference: wild-type Flag-dectin-1; sites Y15

dectin-1 (from UniProt Q6QLQ4) Flag-dectin-1 Y15F
binding against the reference: lost
